Assay results from patent US9381164B2, “Silk nanospheres and microspheres and methods of making same” (TRUSTEES OF TUFTS COLLEGE, priority 2009, dated 2016).
Structures can show the parent of a compound that is named as a salt. Where two headings read alike, the source gives them in different places.

What was measured:
[1] = Cumulative drug release from silk spheres in PBS; type: physicochemical; settings: for In vitro drug release: Microspheres, PVA blend film
Method: Silk spheres loaded with model drugs as described in Example 5 were lyophilized. 10 mg of lyophilized silk spheres were suspended in 1 ml of PBS buffer, pH 7.4. The samples were incubated at room temperature under slow shaking condition. A cumulative drug release profile at each different time point (1, 4, 8.5, 24, 48, 120, 192, 342 hr) was determined by following the steps of (a) centrifuging the samples at 12,000 rpm for 10 min with a Sigma ISS-113 microcentrifuge (Sigma Chemical Co., St. Louis, Mo.); (b) carefully transferring the supernatants to empty tubes, subjecting the collected supernatants to the absorbance measurement at a wavelength of 555 nm, calculating the amount of model drug based on a standard curve, and comparing the data at the current time point with the original amounted drug loaded in the spheres; (c) suspending the precipitated pellets in 1 ml of PBS buffer; and (d) repeating the steps of (a)-(c) at each time point to obtain a cumulative drug release profile. For each model drug, at least three samples were prepared in order to obtain a standard deviation.

[2] = Drug loading in silk spheres (supernatant absorbance at 555 nm); type: physicochemical; settings: drug/silk 1:100; spheres from 1.0% silk/4.0% PVA blend
Method: Tetramethylrhodamine conjugated bovine serum albumin (TMR-BSA, M.w.=66,000 Da), tetramethylrhodamine conjugated dextran (TMR-Dextran, M.w.=10,000 Da), and rhodamine B (RhB, M.w.=479 Da) were used as model drugs to study the drug loading in silk nano- and micro spheres. Stock solutions of drugs were prepared with a concentration of 5 mg/ml in PBS buffer, pH 7.4, and stored at −20° C. Certain amount of stock solution of drugs was added to silk fibroin solution, before the silk fibroin solution was prepared into silk nano- and micro spheres, to reach to a drug/silk ratio of 1:100 (weight ratio). After mixing, the drug loaded silk fibroin solution was used to blend with PVA solution following the steps described in the Example 2, without the sonication treatment. A 5 wt % of silk and PVA concentrations and a silk/PVA ratio of 1:4 were used in this example. At this concentration, the silk/PVA film with a silk/PVA ratio of 1/4 can generate silk spheres with narrower size distribution, perhaps because the blend film is easier to dissolve in water forming homogeneous sphere suspension.
To determine the amount of drug loading in silk spheres, the supernatants collected from the centrifugation steps were subjected to absorbance measurement at 555 nm. The amount of drug was calculated based on a standard curve obtained at the same condition. The amount of drug in silk spheres was calculated from the difference between the total amount used and the amount remained in the supernatants. For each drug loading, at least three samples were prepared in order to obtain a standard deviation. The pellets from the last step of centrifugation were suspended in 2 ml of PBS buffer, pH 7.4, and used for the following confocal microscopy and drug release studies in Example 6.

[3] = cited from earlier work
[4] = Microspheres, Vibrational splitting of laminar jet

Row | In vitro drug release [1] | Compound | loading efficiency [2] | In vitro drug release [3, 4] | also measured
1 |  | tetramethylrhodamine conjugated dextran [TMR-dextran] | approximately 1.2% |  | total loading released within 2 weeks ([1]; PBS pH 7.4, room temperature, within 2 weeks): more than 60%
2 | 7 days | Dextran |  |  | 
3 |  | CC(C)NCC(O)COc1cccc2ccccc12 (centres unmarked) [propranolol hydrochloride] |  | 20 days | 
4 |  | IGF-I: insulin like growth factor loaded in silk delivery systems |  | >7 weeks | In vitro drug release ([3]; Porous sponge, Drug encapsulated): >4 weeks
5 |  | O=C(O)c1ccccc1O [Salicylic acid] |  | 1 days | 
6 |  | Cn1c(=O)c2[nH]cnc2n(C)c1=O [theophylline] |  |  | In vitro drug release ([3]; Layer-by-layer coatings, Coat drug tablet): >0.33 days
7 | >4 weeks | CCN(CC)c1ccc2c(-c3ccccc3C(=O)O)c3ccc(=[N+](CC)CC)cc-3oc2c1.[Cl-] [RhB, rhodamine B] | approximately 95% |  | initial burst release ([1]; PBS pH 7.4, room temperature): about 1%

Row | Compound | In vitro drug release [1] | loading efficiency [2] | In vitro drug release [3, 4] | also measured
8 | Tetramethylrhodamine conjugated bovine serum albumin [TMR-BSA] | >4 weeks | about 51% |  | initial burst release ([1]; PBS pH 7.4, room temperature): about 1%
